Experimental data reported in patent US6995018 (US Dept. of Health and Human Services, dated 2006).

How the values were obtained:
[1] = biological target: T1, αVβ3 integrin on murine erythroleukemia (MEL) cells (murine (MEL cells), UniProt P43406 31-1044; O54890 26-787); assay: inferred from MEL cell complement lysis assay with GRGDS peptide, αVβ3 antibody and RGD->KAE mutant
T1 construct: whole, on cells; also called integrins; cell surface integrins
Protocol: MEL cells prepared as in FIG. 8 were treated with normal rBSP (10 μg/mL), rBSP whose RGD sequence had been mutated to KAE ([…]), and either GRGDS (SEQ ID NO: 10) peptide (400 μM) followed by rBSP or an αVβ3 antibody (1:4000) followed by rBSP for 10 minutes prior to the addition of normal human serum. The cells were then incubated for 10 minutes after which cell viability determined using the MTT assay (A). A cohort of MEL cells were pretreated with rOPN (10 μg/mL) alone, GRGDS (SEQ ID NO: 10) peptide followed by rOPN, the αVβ3 antibody followed by rOPN, or an anti-CD44 antibody (Chemicon, Co.) followed by rOPN, or hyaluronan (HA) followed by rOPN (B). Cells were then treated with normal human serum and viability assayed as in FIG. 8. […] Statistical significance was determined by analysis of variance. Percent cell viability was determined using A560 absorbance values of various conditions and a control where no serum had been added (100% viable). […]
Murine erytliroleukemia (MEL) cells (a gift of Dr. Marilyn Farquhar, Univ. CA San Diego.) grown in DMEM containing 10% fetal bovine serum and 4 mM glutamine were rinsed three times with gelatin veronal buffer with Mg_2^+ and EGTA (GVB-MgEGTA, Sigma, St. Louis, Mo.). […] Cell viability was determined spectrophotometrically by absorbance at 560 nm.

[2] = biological target: T2, human complement Factor H (human, UniProt P08603 19-1231); assay: steady state tryptophan fluorescence quenching, titration of Factor H with BSP
T2 construct: In some experiments Factor H is the endogenous protein of normal human serum; also called fH; purified human Factor H (Quidel)
Excerpt: (§1) Steady state fluorescence studies were accomplished by titrating purified human complement Factor H with rBSP, rOPN, and rDMP1 followed by excitation at 295 nm and monitoring emission between 300 and 450 nm. The emission profile of Factor H alone yields a peak at 347 nm. The addition of rBSP, rOPN, or rDMP1 in nm increments causes a relative fluorescent intensity quenching. Conversion of the fluorescent intensity titration into a binding curve by determining the fraction of binding sites occupied as the fractional change in fluorescence quenching at 347 nm yields a saturable binding curve. […] Given that normal serum concentration of Factor H is ~0.5 mg/mL it is probable that virtually all BSP, OPN, and DMP1 in serum will be complexed with Factor H.

[3] = biological target: T2, human complement Factor H; assay: steady state fluorescence, titration of purified human Factor H with rDMP1
Excerpt: as §1

T2 sequence (P08603 19-1231 limits assumed): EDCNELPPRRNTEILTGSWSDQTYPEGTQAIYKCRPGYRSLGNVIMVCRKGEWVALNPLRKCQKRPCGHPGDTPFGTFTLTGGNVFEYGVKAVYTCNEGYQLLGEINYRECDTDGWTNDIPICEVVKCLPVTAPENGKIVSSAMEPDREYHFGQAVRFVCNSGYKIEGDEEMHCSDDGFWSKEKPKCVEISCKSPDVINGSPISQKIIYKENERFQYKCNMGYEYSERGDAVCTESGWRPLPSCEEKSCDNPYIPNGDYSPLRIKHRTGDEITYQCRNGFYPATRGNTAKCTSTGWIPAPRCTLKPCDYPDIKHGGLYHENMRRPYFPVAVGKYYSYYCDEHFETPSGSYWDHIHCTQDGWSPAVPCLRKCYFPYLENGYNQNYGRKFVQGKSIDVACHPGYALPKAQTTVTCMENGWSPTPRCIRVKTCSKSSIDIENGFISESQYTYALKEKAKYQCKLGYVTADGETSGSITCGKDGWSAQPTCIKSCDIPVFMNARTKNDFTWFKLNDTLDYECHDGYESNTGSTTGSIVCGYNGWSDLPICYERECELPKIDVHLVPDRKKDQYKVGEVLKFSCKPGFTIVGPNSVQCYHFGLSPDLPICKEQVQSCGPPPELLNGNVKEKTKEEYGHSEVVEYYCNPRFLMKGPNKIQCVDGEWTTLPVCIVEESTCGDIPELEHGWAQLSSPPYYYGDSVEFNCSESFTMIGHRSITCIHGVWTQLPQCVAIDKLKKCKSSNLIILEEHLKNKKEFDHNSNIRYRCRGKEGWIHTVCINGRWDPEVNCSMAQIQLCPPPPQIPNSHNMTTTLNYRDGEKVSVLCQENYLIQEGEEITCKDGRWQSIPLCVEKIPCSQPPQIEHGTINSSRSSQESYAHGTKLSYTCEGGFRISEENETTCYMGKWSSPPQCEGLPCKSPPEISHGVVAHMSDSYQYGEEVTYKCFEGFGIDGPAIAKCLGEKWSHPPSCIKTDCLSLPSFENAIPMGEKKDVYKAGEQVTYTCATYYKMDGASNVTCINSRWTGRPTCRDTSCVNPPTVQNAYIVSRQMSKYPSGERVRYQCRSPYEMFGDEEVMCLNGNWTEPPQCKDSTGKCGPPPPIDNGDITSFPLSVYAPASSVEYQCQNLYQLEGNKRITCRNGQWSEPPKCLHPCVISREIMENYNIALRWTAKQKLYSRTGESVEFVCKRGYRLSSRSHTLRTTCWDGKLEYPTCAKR
T1 sequence (P43406 31-1044, chain 1 of 2): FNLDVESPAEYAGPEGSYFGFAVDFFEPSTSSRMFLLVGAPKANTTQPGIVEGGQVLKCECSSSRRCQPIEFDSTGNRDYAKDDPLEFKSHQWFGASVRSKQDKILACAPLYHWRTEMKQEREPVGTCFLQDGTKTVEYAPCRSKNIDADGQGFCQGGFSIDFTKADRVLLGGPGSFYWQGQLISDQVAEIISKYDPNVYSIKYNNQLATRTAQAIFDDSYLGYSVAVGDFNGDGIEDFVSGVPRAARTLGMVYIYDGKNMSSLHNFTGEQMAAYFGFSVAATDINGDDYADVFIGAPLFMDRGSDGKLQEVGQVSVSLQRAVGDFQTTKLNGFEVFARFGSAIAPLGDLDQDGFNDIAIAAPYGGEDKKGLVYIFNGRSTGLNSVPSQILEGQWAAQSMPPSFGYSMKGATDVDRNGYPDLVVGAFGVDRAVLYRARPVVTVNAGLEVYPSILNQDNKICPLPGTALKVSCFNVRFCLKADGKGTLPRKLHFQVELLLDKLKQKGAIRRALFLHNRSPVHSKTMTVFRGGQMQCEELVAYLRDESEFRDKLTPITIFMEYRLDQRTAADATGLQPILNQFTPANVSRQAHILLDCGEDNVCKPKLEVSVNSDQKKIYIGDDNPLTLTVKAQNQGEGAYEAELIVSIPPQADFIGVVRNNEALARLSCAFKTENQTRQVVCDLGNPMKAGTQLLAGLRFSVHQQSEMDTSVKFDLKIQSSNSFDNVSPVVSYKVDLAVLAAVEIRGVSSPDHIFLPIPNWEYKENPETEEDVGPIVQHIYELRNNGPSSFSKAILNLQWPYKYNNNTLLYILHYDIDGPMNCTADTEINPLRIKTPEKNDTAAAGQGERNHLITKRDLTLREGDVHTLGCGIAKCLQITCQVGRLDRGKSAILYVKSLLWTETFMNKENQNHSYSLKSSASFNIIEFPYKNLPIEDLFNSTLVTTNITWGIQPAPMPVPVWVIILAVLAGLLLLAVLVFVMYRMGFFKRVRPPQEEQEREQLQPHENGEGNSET
T1 sequence (O54890 26-787, chain 2 of 2): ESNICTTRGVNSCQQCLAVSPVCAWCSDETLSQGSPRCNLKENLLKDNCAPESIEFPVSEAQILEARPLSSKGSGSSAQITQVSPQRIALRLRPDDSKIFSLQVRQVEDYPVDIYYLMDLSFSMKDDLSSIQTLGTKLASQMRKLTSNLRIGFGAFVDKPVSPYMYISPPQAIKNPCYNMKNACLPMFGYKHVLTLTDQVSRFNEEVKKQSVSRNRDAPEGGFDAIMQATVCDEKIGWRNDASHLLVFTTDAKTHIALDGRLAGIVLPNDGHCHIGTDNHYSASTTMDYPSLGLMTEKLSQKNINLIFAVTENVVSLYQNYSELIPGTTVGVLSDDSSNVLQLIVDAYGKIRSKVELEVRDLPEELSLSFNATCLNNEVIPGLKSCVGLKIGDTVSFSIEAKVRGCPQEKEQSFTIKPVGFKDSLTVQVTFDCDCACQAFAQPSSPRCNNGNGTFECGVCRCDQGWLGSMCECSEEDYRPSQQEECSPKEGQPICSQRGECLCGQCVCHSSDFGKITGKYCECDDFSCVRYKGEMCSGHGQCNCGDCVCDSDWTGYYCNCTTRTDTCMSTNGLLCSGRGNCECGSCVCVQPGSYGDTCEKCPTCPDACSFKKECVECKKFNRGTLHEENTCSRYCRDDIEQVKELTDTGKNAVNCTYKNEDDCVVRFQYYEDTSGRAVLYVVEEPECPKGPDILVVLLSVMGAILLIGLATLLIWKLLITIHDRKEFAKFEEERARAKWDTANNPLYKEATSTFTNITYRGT

| binding result [1] | Kd [2] [nM] | stoichiometry (BSP:Factor H) [2] [mol/mol] | stoichiometry (DMP1:Factor H) [3] [mol/mol] | Binder |
| --- | --- | --- | --- | --- |
| binds | ≤ 1 | 1 |  | recombinant human bone sialoprotein (rBSP) (ligand, post-translationally modified by the producing human marrow stromal fibroblasts (glycosylation, sulfation, phosphorylation; sites not stated), Range 17-317 follows the stated 16-residue leader; not checked against the listing; also called recombinant BSP; purified human BSP) FSMKNLHRRVKIEDSEENGVFKYRPRYYLYKHAYFYPHLKRFPVQGSSDSSEENGDDSSEEEEEEEETSNEGENNEESNEDEDSEAENTTLSATTLGYGEDATPGTGYTGLAAIQLPKKAGDITNKATKEKESDEEEEEEEEGNENEESEAEVDENEQGINGTSTNSTEAENGNGSSGGDNGEEGEEESVTGANAEGTTETGGQGKGTSKTTTSPNGGFEPTTPPQVYRTTSPPFGKTTTVEYEGEYEYTGVNEYDNGYEIYESENGEPRGDNYRAYEDEYSYFKGQGYDGYDGQNYYHHQ |
|  |  |  | 1 | recombinant dentin matrix protein 1 (rDMP1) (ligand) LPVTRYQNNESEDSEEWKGHLAQAPTPPLESSESSEGSKVSSEEQANEDPSDSTQSEEGLGSDDHQYIYRLAGGFSRSTGKGGDDKDDDEDDSGDDTFGDDDSGPGPKDRQEGGNSRLGSDEDSDDTIQASEESAPQGQDSAQDTTSESRELDNEDRVDSKPEGGDSTQESESEEHWVGGGSDGESSHGDGSELDDEGMQSDDPESIRSERGNSRMNSAGMKSKESGENSEQANTQDSGGSQLLEHPSRKIFRKSRISEEDDRSELDDNNTMEEVKSDSTENSNSRDTGLSQPRRDSKGDSQEDSKENLSQEESQNVDGPSSESSQEANLSSQENSSESQEEVVSESRGDNPDPTTSYVEDQEDSDSSEEDSSHTLSHSKSESREEQADSESSESLNFSEESPESPEDENSSSQEGLQSHSSSAESQSEESHSEEDDSDSQDSSRSKEDSNSTESKSSSEEDGQLKNIEIESRKLTVDAYHNKPIGDQDDNDCQDGY |
